Reference: US20120329707A1 (INDIANA UNIVERSITY RESEARCH AND TECHNOLOGY, published 2012)
Numbered stars: 1 amine (or outer) side, 2 acyl side, 3 side chain; on linkers, the order of the positions; unused ones are H or OH. Square brackets hold non-standard residues; d marks the D form. Primed or numbered codes have the meaning given here. Side chains are listed from the residue outwards. Ends that are not written are not given here. * marks the point of attachment. 40K‑TE PEG = 40 kDa PEG covalently bound via thioether, formed by reaction of the free thiol of the peptide (Cys side chain) with an iodoacetic-functionalized PEG; 40K‑TE PEG(3) = 40 kDa PEG bound to the Cys thiol via a thioether, made by reacting the free-thiol peptide with iodoacetic-functionalised PEG; 40K‑TE PEG″ = 40 kDa PEG bound to Cys via thioether made from an iodoacetyl-functionalised PEG; EDTA amide = ethylenediaminetetraacetic acid amide, O=C(O)CN(CCN(CC(=O)O)CC(=O)*)CC(=O)O; 20K‑TE PEG = 20 kDa PEG bound via thioether from iodoacetic-functioned PEG; 12K‑ME PEG = 12 kDa PEG bound via maleimido-thioether; γGlu = O=C(O)[C@H](CCC(=O)[*:2])N[*:1]; Palmitoyl = CCCCCCCCCCCCCCCC(=O)*; Aib = CC(C)(N)C(=O)O

Experiments:
GLP-1 receptor = assay: cell-based or functional assay
glucagon receptor = assay: cell-based or functional assay

Binder | EC50 (nM) at GLP-1 receptor (GLP-1 receptor) | EC50 (nM) at glucagon receptor (glucagon receptor)
H[Aib]QGTFTSDYSKYLDEK[Aib]AKEFVC(40K‑TE PEG(3))WLLDT-NH2 [peptide of SEQ ID NO: 52] | 0.054 nM | 4.5 nM
H[dS]QGTFTSDK([γGlu-Palmitoyl])SKYLDEQAAKEFIC(12K‑ME PEG)WLLDT-NH2 [peptide of SEQ ID NO: 43] | 0.011 nM | 0.02 nM
H[Aib]QGTFTSDYSKYLDEKRA[Aib]EFVC(40K‑TE PEG)WLL[Aib]T-NH2 [peptide of SEQ ID NO: 41] | 0.074 nM | 0.309 nM
H[Aib]QGTFTSDYSKYLDEKRA[Aib]EFVC(40K‑TE PEG)WLLDT-OH [peptide of SEQ ID NO: 45] | 1.44 nM | 0.651 nM
H[dS]QGTFTSDK(EDTA amide)SKYLDERAAQDFVQWLLDGGPSSGAPPPS-NH2 [peptide of SEQ ID NO: 55] | 0.108 nM | 4.34 nM
H[Aib]QGTFTSDYSKYLDEKRA[Aib]EFVC(40K‑TE PEG)WLLDGGPSSGAPPPS-NH2 [peptide of SEQ ID NO: 47] | 0.052 nM | 0.591 nM
H[Aib]QGTFTSDYSKYLD[Aib]KRA[Aib]EFVC(40K‑TE PEG(3))WLLDGGPSSGAPPPS-NH2 [peptide of SEQ ID NO: 46] | 0.136 nM | 0.227 nM
H[Aib]QGTFTSDYSKYLDEKRA[Aib]EFVC(40K‑TE PEG)WLLDT-NH2 [peptide of SEQ ID NO: 13] | 0.067 nM | 0.141 nM
H[Aib]QGTFTSDYSKYLDEKRA[Aib]EFV[Aib]WLLC(40K‑TE PEG)T-NH2 [peptide of SEQ ID NO: 42] | 0.117 nM | 1.01 nM
H[Aib]QGTFTSDYSKYLDEKRA[Aib]DFVC(40K‑TE PEG(3))WLLDT-NH2 [peptide of SEQ ID NO: 54] | 0.097 nM | 0.939 nM
H[Aib]QGTFTSDYSKYLD[Aib]KRAKEFVQWLLC(40K‑TE PEG)T-OH [peptide of SEQ ID NO: 39] | 1.28 nM | 0.852 nM
H[Aib]QGTFTSDYSKYLD[Aib]KRAKEFVQWLLDTC(40K‑TE PEG″)-NH2 [peptide of SEQ ID NO: 40] | 0.653 nM | 1.19 nM
H[dS]QGTFTSDK([γGlu-Palmitoyl])SKYLDEQAAKEFIC(20K‑TE PEG)WLLDT-NH2 [peptide of SEQ ID NO: 44] | 0.017 nM | 0.023 nM
H[Aib]QGTFTSDYSKYLD[Aib]KRA[Aib]EFVC(40K‑TE PEG″)WLLDT-NH2 [peptide of SEQ ID NO: 38] | 0.31 nM | 0.141 nM
